The source of these data is US20070178575A1, “Identification Of A Nitrilase From B. Japonicum By Rational Genome Mining And Methods Of Use” (priority 2005, published 2007).

The test system of data set [1] is T1, N#CCc1ccccc1.
T1 construct: His tag (C); made in house; host or cells: E. coli Rosetta(DE3)pLysS (plasmid pLH10.3, pET22b)
Briefly: Measurement of kinetic parameters (Bertholet ammonia assay, purified enzyme). Format: biochemical, Bradyrhizobium japonicum USDA110. Particulars: other: purified nitrilase, potassium phosphate buffer pH 7.2, 30° C. As for the experimental part: (§1) The standard assays were carried out by mixing the substrate nitrile and purified nitrilase enzyme in potassium phosphate buffer (100 mM, pH 7.2). The reaction mixture was incubated at 30° C. Samples (100 μL) of the reaction mixture were withdrawn at several time intervals and quenched with 10 μl of 1 M HCl. The amount of ammonia produced in the reaction was measured using Bertholet assay as follows: A 100 μL aliquot of each of the following assay reagents was added subsequently: 0.02 M NaOCl, 0.33 M sodium phenoxide and 0.01% sodium nitroprusside solution. The mixture was then heated at 95° C. for 2 min, cooled rapidly in ice-water bath, and 200 μl of the mixture was then placed in a 96-well plate to measure the absorbance at 640 nm using SpectraMax M2 microplate reader (Molecular Devices). The amount of ammonia released during the hydrolysis was calculated by comparison with the standard curve obtained with standard ammonium chloride solution, and the activity was defined as the number of μmol of ammonia produced in 1 minute by 1 mg of enzyme (μmol·min^−1·mg^−1). […], activity assays were performed with different substrate concentrations, and Vmax and Km were calculated by best fitting the curve to experimental data according to Michaelis equation.

Data set [2] has as its system T2, N#CC(O)c1ccccc1.
T2 construct: His tag (C); made in house; host or cells: E. coli Rosetta(DE3)pLysS (plasmid pLH10.3, pET22b)
Described as above. Particulars: other: purified nitrilase, potassium phosphate buffer pH 7.2, 30° C. The format is biochemical, Bradyrhizobium japonicum USDA110. The procedure:
as §1

What is called Km is the substrate concentration at which the rate is half of its maximum. As a reminder, the kcat is the maximal rate divided by the concentration of active sites. For “nitrilase bll6402 (Bradyrhizobium diazoefficiens USDA 110)”, in data set [1], the Km was 100 µM, the Vmax was determined as 2.2 U/mg, the kcat turned out to be 1.36 s⁻¹ and the kcat/Km is reported as 13600 s^−1M^−1. For the same substance, in data set [2], the Km was 260 µM, the Vmax was 44.7 U/mg, the kcat came out at 27.0 s⁻¹ and the kcat/Km was determined as 104000 M⁻¹ s⁻¹.
